The values that follow come from publication PMC11878792, “Structural basis for aminoacylation of cellular modified tRNA^Lys3 by human lysyl-tRNA synthetase” (Nucleic Acids Research, 2025).

The target in the experiment is T1, human lysyl-tRNA synthetase (h-LysRS), wild type, full length (human, UniProt Q15046 1-597).
T1 construct: Human lysyl-tRNA synthetase (LysRS), full length, wild type; printed residue numbers (NTD 1-65, S207, linker 208-220) fit the cytosolic form; Dimer in the cryo-EM reconstructions; No removal of the His tag is described; also called wt LysRS; wt h-LysRS; source: E. coli BL21 (DE3), purified (PEI and ammonium sulfate precipitation, Ni-NTA, hydroxyapatite)
Briefly: cryo-EM structure; 10 uM h-LysRS-tRNALys3 (cellular modified, 1:1), 100 uM AIMP2-N36, 2.5 mM L-lysine, 2 mM AMP; complex formed 60 min at 4°C; 0.075% CHAPSO added before freezing. The following applies: both partners purified.

T1 sequence (Q15046 whole entry): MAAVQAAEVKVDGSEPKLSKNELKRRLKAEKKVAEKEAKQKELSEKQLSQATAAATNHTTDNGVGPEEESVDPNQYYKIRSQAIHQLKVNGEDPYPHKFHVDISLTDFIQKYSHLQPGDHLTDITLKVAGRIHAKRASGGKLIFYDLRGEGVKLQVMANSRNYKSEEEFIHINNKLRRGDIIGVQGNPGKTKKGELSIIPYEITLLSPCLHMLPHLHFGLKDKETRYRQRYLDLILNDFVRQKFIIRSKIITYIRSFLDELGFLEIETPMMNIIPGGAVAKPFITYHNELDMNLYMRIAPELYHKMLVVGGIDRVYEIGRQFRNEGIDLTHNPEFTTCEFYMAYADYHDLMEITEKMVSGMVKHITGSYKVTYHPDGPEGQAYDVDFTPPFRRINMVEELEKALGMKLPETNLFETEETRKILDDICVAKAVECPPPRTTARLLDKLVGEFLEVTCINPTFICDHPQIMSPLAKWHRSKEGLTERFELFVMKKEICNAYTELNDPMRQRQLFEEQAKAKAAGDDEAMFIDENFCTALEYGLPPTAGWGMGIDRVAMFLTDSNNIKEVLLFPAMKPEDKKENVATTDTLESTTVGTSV

B1: AIMP2-N36 peptide (LysRS interacting N-terminal region of AIMP2) (peptide)
peptide: MPMYQVKPYHGGGAPLRVELPTCMYRLPNVHGRSYG
notes: also called AIMP2 peptide; p38; source: synthetic peptide, bought: Biosynth
By stoichiometry N is commonly meant the number of molecules, sites or subunits per partner or assembly. As to B1, the “stoichiometry N” value is 2 copies per LysRS dimer.
